The data set in a line: purified protein yield per well (BCA); higher = higher soluble expression. The procedure, abridged: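 Expression was done in E. coli C41(DE3), using 2 mL autoinduction cultures with 100 µg/mL kanamycin incubated at 37 °C for 2 h and at 18 °C for 40 h. Protein was purified on Ni-charged magnetic beads and released by SUMO protease cleavage. Yield of purified protein per well was measured with the Pierce Rapid Gold BCA kit; values below 25 ug (0.1 mg/mL) are below detection.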
In the case of “ADNPYERGPDPTEASIEAPRGPYAVAEKSVSALEATGFGGGTIHYPTSTAEGTFGAVAIAPGYTALQSSVAWLGPRLASQGFVVITIDTHTTVDQPASRGDQLLAALDHLTRRDSVRSRVDSGRLGVMGHSMGGGGSLEAAKDRPSLQAAIPLTGWNLDKTWSEVRVPTMLIGADGDTIAPVATHSQPFYESLPSTLDRAYLELNDAGHFTPNAPDTTIAKYSVSWLKRFIDNDTRYEQFLCPLPRPSRTIDEYRGNCPHTS [TEP143]”, the “purified protein yield per well” value was less than 25 µg. On to “QVGPDPTSASLNATAGPFSVSTASVISPRGFGGGTIYYPTTTGRYGVVAISPGFTATQSSIAWLGRRLATHGLVVITMNTNSTYDQPSSRATQLMAALNYVVNSSSSTVRARVDSSKLAVAGHSMGGGGALIAAENNPTLKASLPLTPWNSSTNFSDVRVPTLIVGADGDSVASVSRHARPFYASLPSNTFKAYAELNGASHFTPNSTSTPIGRYGVAWMKRFVDADTRYSPFLCGAAHQSYATSLVFDRYSQNCPY [ESM125]”, for which the “purified protein yield per well” value is less than 25 µg.

In the case of “FDPPNGAVIMVPGFRGTPPVYDWWGPMLASVGVITMIIETNTPEDSLEARKNAFIAGVEFLSGENDNPASPIRDKLDTSNIAIMGHSLGGGASLRAAEELGSRIKAVIPLTPYCCELGQSFEGNLSGVSVPTLIIASAEDAIAPPAEHARMLYDSVNAATEKVYLEFATGNHMLPSNSGQDLETLGTYVYAFIKENFTDNPRYADFIFGDGEEQFSTYEISQ [TEP136]”, the “purified protein yield per well” value is less than 25 µg.

Consider “ADNPYERGPAPTNSSIEASRGPFAVSETSVSSLVSGFGGGTIYYPTSTSAGTFGAVAISPGYTGTQSTMAWLGPRLASQGFVIFTIDTNSVYDQPDSRASQLLAALDYLTQQSTVRTRIDSSRLGVMGHSMGGGGTLRAASQRPSLQAAIPLTGWHTTKNWSSVRVPTLVVGAESDSVAPVSSHSEPFYTSLPSTLDKAYLELNNASHFAPNSSNTTIAKYSISWLKRFIDNDTRYEQFLCPAPGRSTLIEEYRDTCPHS [TEP028]”, for which the “purified protein yield per well” value was less than 25 µg.

For “SASASAPAASRVQAAASGNTYQRGPDPTLSSVAASTGPFATAQVSVPAGYGFKGGMIYYPTDTSLGTWGAVAIVPGYTALFANEEAWMGPWLASFGFVVIGVETNSTTDYDTQRGTELLAALNYLTTQSPVRDRVDPTRLGVIGHSMGGGGVVYATEHQPSLKGAVALAPFSPSQSMATDTVPTMVMGGQNDTVVTPSYLAGLYATLPASTQSDFIQIAGADHIYYTHPNPVEMRILIPWLKTFLDEDTRYTQFLCPTLADPSGVSMYQSKCPYVPGGGSTPPPPAGGALHAVGAGKCVDVPNSTTTSGTQVQIYSCNGQANQAFTHNSAGELAVTDAGVTDCLDANGKGTTNGTKVIIYPCNGQPNQQWTINSNGTITGVQSGLCLDVTGASTANGALVELWTCNGGSNQKWTLS [TEP058]”, the “purified protein yield per well” value is less than 25 µg.

Turning to “FGGGTIYYPTSTADGTFGAVVISPGFTAYESSIAWLGPRLASQGFVVFTIDTNTTLDQPDSRGRQLLAALDYLTQRSSVRTRVDATRLGVMGHSMGGGGSLEAAKSRPSLKAAIPLTGWNTDKTWPELRTPTLVVGADGDSIAPVATHSEPFYESLPGSLDKAYLELRGASHFTP [TEP045]”, the “purified protein yield per well” value is less than 25 µg.

Take “SPPIVRYDYAPGKYSGNGPYSYSTYQLPGWSPGATVYYPTNASPPFSGIVFCPPYTGTQSNFAAWGPFFASHGIVLVTMDTSSTLISVDQRAIEQRMVLDLLKAERNRPGSPLYNKIDPERVGAMGWSMGGGASWINSAEYPGLKTAMSLAGHHLTAINPNAKGYGTQCPTIIFCGLLDQTILGGMLQSETVYYNIPSGIPKVFYEVSTAGHFVWYSPTAANSHVAELALAFQKTFLDGDTRWEQYIEEPLFD [TEP034]”: the “purified protein yield per well” value was less than 25 µg. Turning to “AAPVHHPVTRPAPAHHQPAAAAVDQIVVPAAADARFGGGTIFAPRGAGQKVLGSVVVTPGFHGRKSDMAVYGTELAAEGFVVFTIDTRDRADLPDQRATEMLAAADYLTGRSAVKGEVSPDRVALLGYSMGGGGTLQAAQERPSIKAALTLMPYDYPPAGDPKAVHPAYPELTVPTLIITGQKDATAIPAKFGKPAYDSIPAGTPKQYLQLTGLGHAAGMGKPTVAIRAAVTAFLERYLDGDTAYAKQICPAPKVGGPISASISSCPAG [ESM150]”, the “purified protein yield per well” value was less than 25 µg. In the case of “QDNSQGRYRPEGRQVGLAIGREFDERLYEVRTYEPEVGAEAFAGAMVFYPLTLSFDPPNGAVAFVPGFRAPASVYEWWGPALASLGYSVFILETNTPTDALAARADALIAAVDLIKAENQNPDAPVANKIDPEKIAIMGHSMGGGASLVAATQMGDSIKAVIPLALYCCEPGQSFSGDYGSLTLPTMIIASAEDEVAPPAEHAKLLYDSIGGSKTYVEFARGDHMFISNSGDQKATLGRFVLAFLKDILDGR [TEP019]” it was less than 25 µg; in that of “QSAGGNPYAIGPDPTASSLEASSGPFGYTSTTIPSSEATGYGGGTVYYPANVNIATGGIVVVPGYGATQSNISWWGPRLASNGFVVYTIDTTNIYDLPAQRAKEIMAAVAQLKTFSTTTGNEIYGKVDTNRIGIMGGSFGGGGTLIAETTHPQLKAAIPFVPKIASGNPDLSKITIPTLIIGCQEDQVAPPKSYAIPYYSAIPEQNHKAYLEISNGQHLCASTQGSDQNKPIIGKYGVAWMKRFIDNDSRYNPYLCGSPHQTDVSNSTVISGYKDTCPY [DP020]”, less than 25 µg. For the sequence “AVQNGPAPTSTSVNAAGTYATASSAVAASASLGFGGGTIYYPTAAGTYGVIALCPGFTATQTSVAWLAQRLATHGFVTLAMNTNNPLLDSPSSRGIQLRAAIAYLTGSSAPAAVKAHVDATRRAVYGHSMGGGGVLYALTSDKTLKAGFPMAPYNTATTSFPTITSATMILTGTGDTTAPPSTYGLPMYNSLPVTTQKAYALLTGAGHS [TEP161]”, the “purified protein yield per well” value is less than 25 µg. In the case of “CSGSTPTAPAAPAPKATAAPNDRPAPTAQVPRSFERGPAPSEKSVTAKRGPFAFEKIEVPAGSGPGFNKGTIYAPTDTSRGTFGAVVMSPGFASPHTWIDWYGPRLASQGFVVMMLETNTLFDVPLLRGRQIVAALDYLTARSVVRGRVDPSRTAVMGHSMGGGGTLEAARQRPGLKAAVPLAPWNPDYNWGGVVVPTMIIGAQRDVIAPTALMSEAYYNRLTAAPEKAYLVLRGAGHLTFMSPNATIAKYVISWMKRFVDNDSRYDRFLCPPPKPRGLLTVYRGTCPTG [DP037]” it was less than 25 µg; in that of “GPTDFQRGPAPTEQSITAERGPFATAQTTVDGPNFNKGTAYYPTDTSQGTFGAVAISPGFASPEAVVSWYGPRLASQGFVVLTLETNSGSDLPDSRATQLVNALDFLVQSSSVKDRIDPNRLAVMGHSMGGGGSLKASELRPSLKAAIPLMPWNNDKTWQGDRVPTMIMGAQNDAIASPASHAKPFYDSLTSAPEKAYLELRSEGHLVAVSPNVTIAKYSIAWLKRFVDEDVRYEQFLCPAPTANLQISEYRNTCPTG [DP025]”, less than 25 µg. For the sequence “SSVNCDSLAQIALLNPGPYSVSSLDESDNIRNGPDYAGAHIYYPTNASGSLSSIVLVPGFMNFESTLQNWGPFLAAHGIVTMTIGANYLTDSPTHRKEALLDAIVTLKAEQTRIGSPLYYSLNINNFAVGGFSMGGGGAQLAAVSDPTIKAIIALNPYLSNASEADFNHNCPVLITSGELDFIANPNLHANVHYAVTPDSTPKQLYEIQNAGHDPLIGPNGGYGEVGMKVLSWLQAFLNDNHCYCPPILTVPTTASSFTHNIVCEDLFIQGCTDSTACNYNPNATIDDGSCETQSCACPGDLNGDYAITVADVLLTLSEFGCMTNCTADIDGDGFVNVTDILELLSMFGTVC [TEP145]”, the “purified protein yield per well” value is less than 25 µg. As to “MTVPPGNGFNGGKIYYPTDTSLGTWAAVAAVPGYTARWDAEGAWMGPWLASFGFVVIGIDTNSPTDYDTARGTQLLAALDYLTQKSPVRDRVDPNRLGVLGHSMGGGGAISAAERRPSLKAALPLAPFSPSQNLSSLRVPTMIMGARDDGTVTPSYLNGLYGSMPTATQSAYIELTSGGHGFPTWGNSNVTRRTIPWLKIFLDNDTRYTQFLCPSLADSSGISRSQTKCPYVPPGGTTTPPSGGQIVGAGSGRCLDVPNASQTNGAQVQLWDCSGNVNQKWARTDAGELRVYGSKCLDAEGSGTSPGTRVIVWDCHGGQNQRWNVNTNGTITSVGSGLCLDTNGGGTGNGAQTVLGNCNGAPTQRWTVR [ESM105]”, the “purified protein yield per well” value was less than 25 µg. With “QSNPYQKGPDPTHASIEADGPYAVSTQALKGSGFGSGTVYSPNAAGSYALVAVCPGFVSAQSSIAQISRRLATHGFVVVTIDTNTIFDFPDSRSTQLLAALKAVAALSTGPAAGKIDTARQAVAGWSMGGGGTLLAAGSTPALKGAVAYAPWALNNNLKASKVPAAILGGTADIVAPPGIFADVFYKAIPAGSSKLLGIVKGADHFFSNTASQPASYTTVAWFKRFVDNDTRYGPFLNGDTRYSRFSYTGPF [TEP040]”, the “purified protein yield per well” value is less than 25 µg. Regarding “RSAPDAAAPRAASGNPYQRGPDPTVASIEATRGPFATAQLNVAPGNGFNGGVVSYPTDTSLGTWGALAIVPGYSALCADEEAWMGPWLSSFGFVVICVETNTRTDSADARAAELLAALNWLTTQSPVKGQIDPGRLSVLGHSAGGAGAILAAERQPSLKAMIGLAPGFPGNGLSMATDTVPTLVIGGQNDTVVTPSYLSGLYATLPGTTQSGFAQIAGADHVYYTRPNNVEMKLLIPWLKLFVDSDTRYSPFLCPALPDPSAVSIYQPKCPYTPPGGSTPPPSTSSGPPMSPAGGRPVHAVGAGKCLDVPGLSATAGTQTDIRTCDGGAGQLWTRASAGRLTVQTGGSTMCLDAAGRGASPGTKVQIWPCNGGSNQQWNVNANGTITGTQSGLCLDVTGGSTADGALVELWTCNGGSNQQWTSQ [TEP076]”, the “purified protein yield per well” value is less than 25 µg. As to “QQTGPDPTSASLNATAGPFAVSTATVTSPVGFGGGTIYYPTIAGQYGVVALSPGFTATQSSVAWLGRRIATHGFVVVTINTNSTLDQPASRANQLIAALNYVANSASTTVRSRVDASRRAVGGHSMGGGGSLIAAQNNPSLKAILPLTPWNLSTNFSGVQVPTLIVGADGDAVAPVASHARPFYASLPSTVRKAYGELNMASHSTPTSGVNTPIGRYGVTWMKRFVDGDTRYSTFLCGAEHQAYATATVFDRYSQNCPY [ESM127]”, the “purified protein yield per well” value was less than 25 µg. Consider “VENGPAPSLASIQADGPYAVSTQTVSGSGFGGGTVYSPNTAGKYAVVAVCPGFTATQSSIAAISRRLATHGFVVVTINTTSVYDFPSSRANQLLAALRTVTALATGPVAGKMDTTRQGVAGWSMGGGGAMLAAGMTPGLKGGVAFAPWSQSNNVSRSAVPMAYLAGTADTVAPAGSHASVFYNATPATTKKLLGVITGADHNFPKTASQPASYTQVAWMKRFLDGDTRYAQFLKGDTRFTTFRSTGPF [ESM107]”, for which the “purified protein yield per well” value was less than 25 µg. On to “ADNPYQRGPDPTRSSVAASRGTFATAQVGVPAGNGFGGGVIYYPTDTSQGTFGAVAIVPGYTAKWAAEGAWTGPWLASFGLVVIGIDTNSANDFDVARDRQLPAALDYLAQRGSVRGRVDTTRLAAMGHSMGGGGALNAALRRPSSKAAVGSAPYKPSGNLASDRVATLLLAGQNDTTVTPSYVDGLHRSIPATTEKGYVELSGAGHAFPTRANSTQMRVVTPWLKVFLDDDARYSQFLCPLMDSAGINRYGSTCPLLPPDGSTGSSSSLVGSGFGKCLDAGAGQDRSKVTITSCTGGGGQKWVFNTNGTITDPQSGRCLDVDARGTADNTAVATWTCHGESNQVWTRRA [ESM189]”, for which the “purified protein yield per well” value is less than 25 µg.
